Experimental data: US20110311550A1
Like-named read-outs stand apart in the source and are kept apart here.

Legend:
[1] = target: HCV E1E2 complex, isolate H77 (genotype 1a) (hepatitis C virus genotype 1a, isolate H77) (UniProt P27958)
[2] = target: E1E2 complex of HCV isolate H77 (genotype 1a), wild type (HCV isolate H77) (UniProt P27958); experiment: competition ELISA on H77 E1E2; competitor m41 (Fab O1)
[3] = target: HCV E1E2 complex, isolate H77 (genotype 1a) (hepatitis C virus genotype 1a, isolate H77) (UniProt P27958); experiment: competition ELISA on lectin-captured H77 E1E2; competitor: Fab V1
[4] = target: E1E2 complex of HCV isolate H77 (genotype 1a), wild type (HCV isolate H77) (UniProt P27958); experiment: competition ELISA on H77 E1E2; competitor m44 (Fab P2)
[5] = target: HCV E1E2 complex, isolate H77 (genotype 1a) (hepatitis C virus genotype 1a, isolate H77) (UniProt P27958); experiment: competition ELISA on lectin-captured H77 E1E2; competitor: Fab S1
[6] = target: HCV E1E2 complex, isolate H77 (genotype 1a) (hepatitis C virus genotype 1a, isolate H77) (UniProt P27958); experiment: competition ELISA on lectin-captured H77 E1E2; competitor: Fab R1
[7] = target: HCV E1E2 complex, isolate H77 (genotype 1a) (hepatitis C virus genotype 1a, isolate H77) (UniProt P27958); experiment: competition ELISA on lectin-captured H77 E1E2; competitor: Fab U1
[8] = target: E1E2 complex of HCV isolate H77 (genotype 1a), wild type (HCV isolate H77) (UniProt P27958); experiment: competition ELISA on H77 E1E2; competitor m37 (Fab N1)
[9] = target: E1E2 complex of HCV isolate H77 (genotype 1a), wild type (HCV isolate H77) (UniProt P27958); experiment: competition ELISA on H77 E1E2; competitor m39 (Fab N3)
[10] = target: HCV E1E2 complex, isolate H77 (genotype 1a) (hepatitis C virus genotype 1a, isolate H77) (UniProt P27958); experiment: competition ELISA on lectin-captured H77 E1E2; competitor: Fab P6
[11] = target: HCV E1E2 complex, isolate H77 (genotype 1a) (hepatitis C virus genotype 1a, isolate H77) (UniProt P27958); experiment: competition ELISA on lectin-captured H77 E1E2; competitor: Fab Q2
[12] = target: E1E2 complex of HCV isolate H77 (genotype 1a), wild type (HCV isolate H77) (UniProt P27958); experiment: competition ELISA on H77 E1E2; competitor m43 (Fab P1a)
[13] = target: E1E2 complex of HCV isolate H77 (genotype 1a), wild type (HCV isolate H77) (UniProt P27958); experiment: competition ELISA on H77 E1E2; competitor m46 (Fab P4)
[14] = target: E1E2 complex of HCV isolate H77 (genotype 1a), wild type (HCV isolate H77) (UniProt P27958); experiment: competition ELISA on H77 E1E2; competitor m45 (Fab P3)
[15] = target: HCV E1E2 complex, isolate H77 (genotype 1a) (hepatitis C virus genotype 1a, isolate H77) (UniProt P27958); experiment: competition ELISA on lectin-captured H77 E1E2; competitor: Fab P5
[16] = target: E1E2 complex of HCV isolate H77 (genotype 1a), wild type (HCV isolate H77) (UniProt P27958); experiment: competition ELISA on H77 E1E2; competitor m42 (Fab P1)
[17] = target: HCV E1E2 complex, isolate H77 (genotype 1a) (hepatitis C virus genotype 1a, isolate H77) (UniProt P27958); experiment: competition ELISA on lectin-captured H77 E1E2; competitor: AR1B (in the Blocking Fab columns)
[18] = target: E1E2 complex of HCV isolate H77 (genotype 1a), wild type (HCV isolate H77) (UniProt P27958); experiment: competition ELISA on H77 E1E2; competitor m40 (Fab N4)
[19] = target: HCV E1E2 complex, isolate H77 (genotype 1a) (hepatitis C virus genotype 1a, isolate H77) (UniProt P27958); experiment: competition ELISA on lectin-captured H77 E1E2; competitor: Fab Q1
[20] = target: HCV E1E2 complex, isolate H77 (genotype 1a) (hepatitis C virus genotype 1a, isolate H77) (UniProt P27958); experiment: competition ELISA on lectin-captured H77 E1E2; competitor: Fab T1
[21] = target: HCV E1E2 complex, isolate H77 (genotype 1a) (hepatitis C virus genotype 1a, isolate H77) (UniProt P27958); experiment: competition ELISA on lectin-captured H77 E1E2; competitor: AR2A (in the Blocking Fab columns)
[22] = target: E1E2 complex of HCV isolate H77 (genotype 1a), wild type (HCV isolate H77) (UniProt P27958); experiment: competition ELISA on H77 E1E2; competitor m38 (Fab N2)
[23] = target: HCV E1E2 complex, isolate H77 (genotype 1a) (hepatitis C virus genotype 1a, isolate H77) (UniProt P27958); experiment: ELISA, mAb with E1E2 (H77), then CD81-LEL plate
[24] = target: HCV E1E2 complex, isolate H77 (genotype 1a) (hepatitis C virus genotype 1a, isolate H77) (UniProt P27958); experiment: apparent affinity: half-maximal binding, ELISA on lectin-captured E1E2
[25] = target: HCV E1E2 complex, isolate HCV-1 (genotype 1a), vaccinia-expressed (hepatitis C virus genotype 1a, isolate HCV-1) (UniProt P26664); experiment: as above

MAb AR3D (antibody)
residual binding [1]: 58%

mouse MAb A4 (antibody)
% residual binding [2]: 96%
residual binding [3]: 99%
% residual binding [4]: 102%
residual binding [5]: 100%
residual binding [6]: 99%
residual binding [7]: 101%
% residual binding [8]: 100%
% residual binding [9]: 96%
residual binding [10]: 99%
residual binding [11]: 98%
% residual binding [12]: 100%
% residual binding [13]: 98%
% residual binding [14]: 100%
residual binding [15]: 100%
% residual binding [16]: 101%
residual binding [17]: 85%
% residual binding [18]: 100%
residual binding [19]: 95%
residual binding [20]: 99%
residual binding [21]: 87%
% residual binding [22]: 101%

MAb AR3D (IgG1 from Fab L4) (antibody)
IC50 [23]: 1 nM
EC50 [24]: 4 nM
EC50 [25]: 2.4 nM
